Source: US20180057604A1

Assays:
[1] = biological target: cyno TfR extracellular domain (analogous construct to human TfR ecd) (cynomolgus monkey); assay: SPR, bispecific antibody
[2] = biological target: human TfR extracellular domain with N-terminal His tag (human) (UniProt P02786); assay: SPR, bispecific antibody
Sequence of human TfR extracellular domain with N-terminal His tag (human) (P02786 89-760 G142S): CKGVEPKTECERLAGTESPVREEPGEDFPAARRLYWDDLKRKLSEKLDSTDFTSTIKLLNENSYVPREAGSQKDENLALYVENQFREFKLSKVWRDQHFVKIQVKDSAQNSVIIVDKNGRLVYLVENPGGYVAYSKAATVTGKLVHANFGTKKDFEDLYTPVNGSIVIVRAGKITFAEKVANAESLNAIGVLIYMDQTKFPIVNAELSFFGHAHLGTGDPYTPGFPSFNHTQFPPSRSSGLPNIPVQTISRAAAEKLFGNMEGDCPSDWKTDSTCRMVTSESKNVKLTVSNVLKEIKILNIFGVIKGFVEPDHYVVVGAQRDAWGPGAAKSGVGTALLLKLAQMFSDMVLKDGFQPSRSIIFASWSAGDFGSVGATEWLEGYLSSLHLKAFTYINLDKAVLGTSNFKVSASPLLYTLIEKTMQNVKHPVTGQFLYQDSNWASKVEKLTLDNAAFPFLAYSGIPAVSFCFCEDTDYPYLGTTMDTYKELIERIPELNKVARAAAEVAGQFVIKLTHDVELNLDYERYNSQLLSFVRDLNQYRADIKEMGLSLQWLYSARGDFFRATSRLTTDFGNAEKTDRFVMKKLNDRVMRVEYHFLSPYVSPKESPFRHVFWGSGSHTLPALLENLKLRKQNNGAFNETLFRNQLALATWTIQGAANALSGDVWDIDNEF

Sequence of cyno TfR extracellular domain (analogous construct to human TfR ecd) (cynomolgus monkey) (Q5RDH6 other isoform, or with tags, fused parts or gaps): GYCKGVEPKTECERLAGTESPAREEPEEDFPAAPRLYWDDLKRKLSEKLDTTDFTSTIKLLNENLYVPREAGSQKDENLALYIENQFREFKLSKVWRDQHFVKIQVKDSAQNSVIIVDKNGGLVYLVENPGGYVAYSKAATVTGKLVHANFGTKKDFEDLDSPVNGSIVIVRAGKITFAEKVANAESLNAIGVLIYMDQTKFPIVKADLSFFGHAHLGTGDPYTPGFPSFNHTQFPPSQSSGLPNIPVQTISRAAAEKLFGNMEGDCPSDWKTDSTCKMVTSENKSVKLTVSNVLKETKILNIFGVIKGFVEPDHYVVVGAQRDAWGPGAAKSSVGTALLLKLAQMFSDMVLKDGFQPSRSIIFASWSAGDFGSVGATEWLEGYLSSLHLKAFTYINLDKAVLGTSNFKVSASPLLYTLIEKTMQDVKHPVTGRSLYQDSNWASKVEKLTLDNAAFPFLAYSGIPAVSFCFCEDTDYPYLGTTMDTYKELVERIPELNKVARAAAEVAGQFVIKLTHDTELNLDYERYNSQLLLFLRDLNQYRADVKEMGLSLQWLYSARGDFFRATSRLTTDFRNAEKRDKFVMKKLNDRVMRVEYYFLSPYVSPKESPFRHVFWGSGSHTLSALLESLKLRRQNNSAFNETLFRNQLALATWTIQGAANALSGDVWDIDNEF

Kd [1]: 0.143 µM
Kd [2]: 0.024 µM
B1: anti-TfR^53A/BACE1 bispecific antibody (15G11.T53A arm) (bispecific antibody, part only; not given: anti-BACE1 arm and constant regions, V domains shown, not shown: another chain or arm of the molecule; a dimerising Fc or GST; small tags and cut ends)
VH: EVQLVQSGAEVKKPGASVKVSCKASGYTFTSYWMHWVRQAPGQRLEWIGEINPANGRTNYIEKFKSRATLTVDKSASTAYMELSSLRSEDTAVYYCARGTRAYHYWGQGTMVTVSS
VL: DIQMTQSPSSLSASVGDRVTITCRASDNLYSNLAWYQQKPGKSPKLLVYDATNLADGVPSRFSGSGSGTDYTLTISSLQPEDFATYYCQHFWGTPLTFGQGTKVEIK
